# Source: patent publication US20240344078A1 (AARHUS UNIVERSITET, published 2024)
# Residue numbers refer to the chain shown, from its start. Numbers in names are those of the source.
# T1: Avi-tagged NFR5 (residues 276-595, Avitag) (Lotus japonicus, biotinylated Avi tag implied by capture on streptavidin biosensors; site not given)
# T1 construct: NFR5 intracellular domain (juxtamembrane, pseudokinase, C-terminal tail) with an N-terminal Avi tag, immobilised on streptavidin biosensors; also called NFR5 Avitag; AviTag NFR5
# T1 chain: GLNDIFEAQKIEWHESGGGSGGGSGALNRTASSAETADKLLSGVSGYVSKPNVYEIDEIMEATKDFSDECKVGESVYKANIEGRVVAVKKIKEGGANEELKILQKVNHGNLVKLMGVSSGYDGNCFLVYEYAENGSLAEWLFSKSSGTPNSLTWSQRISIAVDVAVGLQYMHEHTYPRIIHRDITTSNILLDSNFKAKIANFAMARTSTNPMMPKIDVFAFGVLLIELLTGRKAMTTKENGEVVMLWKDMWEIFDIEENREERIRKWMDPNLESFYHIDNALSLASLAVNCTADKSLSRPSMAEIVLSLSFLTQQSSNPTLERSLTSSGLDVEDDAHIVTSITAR
# T2: C-terminal tailless NFR5 (residues 276-563) (Lotus japonicus)
# T2 construct: Construct used for the SEC complex and the crystal structure with Nb200 (PDB 8S79)
# T2 chain: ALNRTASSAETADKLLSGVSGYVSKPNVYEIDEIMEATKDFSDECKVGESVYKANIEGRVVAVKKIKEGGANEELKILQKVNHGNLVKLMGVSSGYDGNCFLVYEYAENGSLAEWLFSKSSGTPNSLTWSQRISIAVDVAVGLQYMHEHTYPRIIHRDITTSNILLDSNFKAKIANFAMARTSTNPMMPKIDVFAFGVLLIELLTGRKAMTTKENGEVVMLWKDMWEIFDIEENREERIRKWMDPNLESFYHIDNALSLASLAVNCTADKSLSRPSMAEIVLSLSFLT
# B1: VHH Nb200 (VHH)
# VHH: QVQLVESGGGSVQAGDSLRLSCTGPGRTDGPYVMGWFRQAPEKEREFVAAISRYGSGTYYADSVRGRFTISRDNVKNTVYLQMNSLKPEDTAIYYCNRVPPVLSWGQGTQVTVSS
# notes: also called Nb2NFR5
# B2: VHH Nb200 control (A51E Y60E V100E) (VHH)
# VHH: B1 VHH with A50E, Y59E, V99E
# notes: Negative control triple mutant of Nb200; VHHs were cloned with a C-terminal 6xHis tag; also called VHH Nb200 mutant; Nb200 A51E Y60E V100E
# B3: NFR5 intracellular domain (residues 276-595) (receptor)
# chain: ALNRTASSAETADKLLSGVSGYVSKPNVYEIDEIMEATKDFSDECKVGESVYKANIEGRVVAVKKIKEGGANEELKILQKVNHGNLVKLMGVSSGYDGNCFLVYEYAENGSLAEWLFSKSSGTPNSLTWSQRISIAVDVAVGLQYMHEHTYPRIIHRDITTSNILLDSNFKAKIANFAMARTSTNPMMPKIDVFAFGVLLIELLTGRKAMTTKENGEVVMLWKDMWEIFDIEENREERIRKWMDPNLESFYHIDNALSLASLAVNCTADKSLSRPSMAEIVLSLSFLTQQSSNPTLERSLTSSGLDVEDDAHIVTSITAR
# notes: Expressed with an N-terminal thioredoxin-6xHis-TEV fusion tag that was removed by TEV protease before use; also called NFR5 WT
# B4: NFR5 residues 276-595, L290E/L291E (2E) (receptor)
# chain: B3 chain with L15E, L16E
# notes: Mutation numbers follow full-length NFR5; also called NFR5 2E; alphaA 2E
# B5: NFR5 residues 276-595, V294E Y297E V298E (3E) (receptor)
# chain: B3 chain with V19E, Y22E, V23E
# notes: Mutation numbers follow full-length NFR5; also called NFR5 3E; alphaA' 3E
# What was measured:
# [1] = target: T1, Avi-tagged NFR5 (residues 276-595, …); assay: BLI, Avi-tagged NFR5 on streptavidin biosensors, Nb200 5-0.08 µM, 1:1 association/dissociation fit
# Description: (§1) The x-axis indicates time in seconds. The y-axis indicates the wavelength shift in nm. […] The x-axis indicates time in seconds. The y-axis indicates the wavelength shift in nm. […] Blue dotted lines demarcate fractions with complex formation, labelled as P1. Elution of excess Nb200 is labelled as P2. The x-axis indicates volume through the column in mL. The y-axis indicates the UV₂₈₀ milli absorbance units (mAu). […] The first lane, “M”, contains a molecular weight ladder, labeled to the left of the gel picture with the respective kDa amount. Lane “Inp” contains a sample of the input. Lanes “P1” contain fractions from the P1 complex section of the purification. Lanes “P2” contain fractions from the P2 section of the purification with excess Nb200. The black horizontal line over lanes indicates fractions pooled. Arrows indicate the proteins of interest.
# (§2) Streptavidin (SA) biosensors (kinetic quality, Molecular devices, FortéBio) were equilibrated in Binding buffer (50 mM Tris-HCl pH 8, 200 mM NαCl, 0.01% TWEEN® 20) before use. AviTag™ NFR5 in Binding buffer was immobilized on SA sensors until 0.1 nm using an Octet® RED96 (Molecular devices, ForteBio) at 25° C. […] Unspecific binding was measured to a biotin loaded SA sensor and was subtracted from the interaction datasets.
# [2] = target: T2, C-terminal tailless NFR5 (residues …); assay: size exclusion chromatography of NFR5 (residues 276-563) mixed with an excess of Nb200, fractions analysed by SDS-PAGE (co-elution)
# [3] = target: T1, Avi-tagged NFR5 (residues 276-595, …); assay: bio-layer interferometry; Avi-tagged NFR5 immobilised on streptavidin biosensors, Nb200 control in solution at 0.08-5 µM
# Description: as §1, §2
# [4] = target: the molecule itself; assay: dynamic light scattering, concentration series 1-6 mg/ml, self-interaction in solution
# Description: Diffusion coefficients/concentration plots were used to derive self-interaction parameters, kSI (also known as the diffusion interaction parameter kD), by linear regression in GraphPad prism 9 (Graphstats Technologies).
# It was hypothesized that the exposed juxtamembrane motif could function as a hydrophobic interaction surface. […] The NFR5 pattern resembled the pattern formed by the well-known oligomer forms of Bovine Serum Albumin (FIG. 7B). Dynamic light scattering (DLS) was used to measure the in solution particle size dispersity of the NFR5 sample. […] To investigate whether this self-interaction was mediated by the juxtamembrane motif, two variants were generated with substitutions in either αA (L290E, L291E) or αA′ (V294E, Y297E, V298E) that were referred to as 2E (SEQ ID NO: 148) and 3E (SEQ ID NO: 149), respectively (FIG. 7A). It was hypothesized that the introduction of charged glutamates would abolish hydrophobic interactions engaged by the motif. […] A second DLS experiment was performed to compare the in solution self-interaction of wildtype NFR5 with 2E and 3E by measuring their self-interaction parameter (kSI) over a protein concentration series (FIGS. 7D-7F). […] Next an N-terminal Avi-tagged NFR5 was purified in order to immobilize the NFR5 intracellular domain on a streptavidin biosensor (FIGS. 4A-4D, 7G). The immobilized NFR5 was used in a bio-layer interferometry experiment to measure interaction to WT, 2E, and 3E variants (FIGS. 7H-7J).
# [5] = target: T1, Avi-tagged NFR5 (residues 276-595, …); assay: bio-layer interferometry; Avi-tagged NFR5 WT immobilised on streptavidin biosensors, NFR5 WT in solution at 0.07-3.6 mg/mL
# Procedure: (§3) An Avi-tagged version of NFR5 WT (purple) was purified and immobilized on streptavidin biosensors (top box with four-pointed stars representing streptavidin). NFR5 loaded biosensors were assayed against NFR5 WT, 2E (SEQ ID NO: 148), and 3E (SEQ ID NO: 149). […] A clear concentration dependent interaction to NFR5 WT was measured. The x-axis indicates time in seconds; the y-axis indicates nm. […] No interaction was observed. The x-axis indicates time in seconds; the y-axis indicates nm.
# as §2, with “datasets. Data was processed and analyzed in FortéBio Data Analysis 7 (Molecular devices, ForteBio) and GraphPad prism 9 (Graphstats Technologies). […]” for “datasets.”
# [6] = target: T1, Avi-tagged NFR5 (residues 276-595, …); assay: bio-layer interferometry; Avi-tagged NFR5 WT immobilised on streptavidin biosensors, NFR5 2E in solution at 0.07-3.6 mg/mL
# Procedure: as §3
# as §2, with “datasets. Data was processed and analyzed in FortéBio Data Analysis 7 (Molecular devices, ForteBio) and GraphPad prism 9 (Graphstats Technologies). […]” for “datasets.”
# [7] = target: T1, Avi-tagged NFR5 (residues 276-595, …); assay: bio-layer interferometry; Avi-tagged NFR5 WT immobilised on streptavidin biosensors, NFR5 3E in solution at 0.07-3.6 mg/mL
# Procedure: as §3
# as §2, with “datasets. Data was processed and analyzed in FortéBio Data Analysis 7 (Molecular devices, ForteBio) and GraphPad prism 9 (Graphstats Technologies). […]” for “datasets.”
binder,measurement,setting,value
B1,Kd,[1],174 nM
same,binding result,[2],binds
B2,binding result,[3],no binding (tested: 5 µM)
B3,self-interaction parameter kSI,[4],-14.6 mL/g
same,binding result,[5],binds
B4,self-interaction parameter kSI,[4],-10.8 mL/g
same,binding result,[6],no binding (tested: 3.6 mg/mL)
B5,self-interaction parameter kSI,[4],-7.1 mL/g
same,binding result,[7],no binding (tested: 3.6 mg/mL)
